Experimental data reported in US20100203046A1 (Biogen, published 2010).
Where two headings read alike, the source gives them in different places. Values belong to the binder of their own block, whether it stands above or below them.

Tests used:
human C1q (Sigma C0660) [1] = molecular target: T1, human C1q (Sigma C0660) (human, UniProt P02745 23-245; P02746 28-253; P02747 29-245); assay: C1q ELISA on CD2, purified
T1 construct: Bought protein; also called complement protein C1q
Description: (§1) The C1q binding assay was performed by coating 96 well Maxisorb ELISA plates (Nalge-Nunc Rochester, N.Y., USA) with 50 μl recombinant soluble human CD2 at 10 μg/ml overnight at 4° C. in PBS. The wells were aspirated and washed three times with wash buffer (PBS, 0.05% Tween 20) and blocked for >1 h with 200 μ/well of block/diluent buffer (0.1 M Na₂HPO₄, pH 7, 0.1 M NaCl, 0.05% Tween 20, 0.1% gelatin). The antibody to be tested was diluted in block/diluent buffer starting at 15 μg/ml with 3-fold dilutions. 50 μl were added per well, and the plates incubated for 2 h at room temperature. After aspirating and washing as above, 50 μl/well of 2 μg/ml of Sigma human C1q (C0660) diluted in block/diluent buffer was added and incubated for 1.5 h at room temperature. After aspirating and washing as above, 50 μl/well of chicken anti human C1q (Cedarlane laboratories CL2101AP), diluted 2,000-fold in block/diluent buffer, was added. After incubation for 1.5 h at room temperature, the wells were aspirated and washed as above. 50 μl/well of donkey F(ab′)₂ anti chicken IgY HRP conjugate (Jackson ImmunoResearch 703-036-155) diluted to 1:5,000 in block/diluent was then added, and the wells incubated for 1 h at room temperature. After aspirating and washing as above, 100 μl TMB substrate (420 μM TMB, 0.004% H₂O₂ in 0.1 M sodium acetate/citric acid buffer, pH 4.9) was added and incubated for 2 min before the reaction was stopped with 100 μl 2 N sulfuric acid. The absorbance was read at 450 nm with a Softmax P instrument, and Softmax software was used to determine the relative binding affinity (C value) with a 4-parameter fit.

[2] = molecular target: T2, human FcγRI (CD64) on IFNγ-activated U937 cells (human, UniProt P12314 16-374); assay: CD64 bridging assay, purified
T2 construct: whole, on cells; also called FcγR1
T2 sequence (P12314 16-374): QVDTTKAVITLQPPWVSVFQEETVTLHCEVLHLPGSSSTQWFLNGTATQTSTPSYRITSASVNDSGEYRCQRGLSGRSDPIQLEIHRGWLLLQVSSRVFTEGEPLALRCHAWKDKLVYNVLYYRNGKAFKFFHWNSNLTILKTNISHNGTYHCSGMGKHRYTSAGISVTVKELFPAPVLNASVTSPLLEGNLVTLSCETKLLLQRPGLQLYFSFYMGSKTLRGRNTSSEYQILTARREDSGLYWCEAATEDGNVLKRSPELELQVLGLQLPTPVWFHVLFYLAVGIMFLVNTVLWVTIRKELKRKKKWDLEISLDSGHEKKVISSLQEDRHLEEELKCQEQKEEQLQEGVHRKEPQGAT

[3] = molecular target: T3, human FcγRIII (CD16), CD16a (F158), on CD16-transfected Jurkat cells (human, UniProt P08637 17-254); assay: CD16 bridging assay, transient
T3 construct: whole, on cells
T3 sequence (P08637 17-254): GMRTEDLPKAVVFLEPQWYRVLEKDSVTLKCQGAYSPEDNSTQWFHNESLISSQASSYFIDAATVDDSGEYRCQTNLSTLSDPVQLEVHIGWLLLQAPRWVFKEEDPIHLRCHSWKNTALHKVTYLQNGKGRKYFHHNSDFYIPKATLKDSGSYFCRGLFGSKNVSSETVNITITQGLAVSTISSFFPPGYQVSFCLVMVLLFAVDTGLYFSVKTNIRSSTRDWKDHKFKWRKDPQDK

human C1q (Sigma C0660) [4] = molecular target: T1, human C1q (Sigma C0660); assay: C1q ELISA on CD2, transient
Description: as §1

[5] = molecular target: T3, human FcγRIII (CD16), CD16a (F158), on …; assay: CD16 bridging assay, transient; remark: listed apart in the source
[6] = molecular target: T3, human FcγRIII (CD16), CD16a (F158), on …; assay: CD16 bridging assay, transient; remark: listed apart in the source

fold increase in binding vs WT (human C1q (Sigma C0660) [4]): 3 fold | binding result [5]: no binding
B3: chCB6-huIgG1 L251G (antibody, name in EU numbering)
heavy: not shown
light: QIVLTQSPAIMSASPGEKVTMTCRASSSVSHMHWYQQKSGTSPKRWIYDTSKLASGVPARFSGSGSGTSYSLTISSVEAEDAATYYCQQWSSNPLTFGAGTKLELKRTVAAPSVFIFPPSDEQLKSGTASVVCLLNNFYPREAKVQWKVDNALQSGNSQESVTEQDSKDSTYSLSSTLTLSKADYEKHKVYACEVTHQGLSSPVTKSFNRGEC
notes: copies: 2 + 2

fold decrease in binding vs WT (human C1q (Sigma C0660) [1]): 3 fold
B8: chCB6-huIgG1 E294A (antibody, name in EU numbering)
heavy: not shown
light: B3 light
notes: copies: 2 + 2

fold increase in binding vs WT (human C1q (Sigma C0660) [1]): 2 fold | binding result [2]: binds | binding result [3]: binds
B10: chCB6-huIgG1 K326D (antibody, name in EU numbering)
heavy: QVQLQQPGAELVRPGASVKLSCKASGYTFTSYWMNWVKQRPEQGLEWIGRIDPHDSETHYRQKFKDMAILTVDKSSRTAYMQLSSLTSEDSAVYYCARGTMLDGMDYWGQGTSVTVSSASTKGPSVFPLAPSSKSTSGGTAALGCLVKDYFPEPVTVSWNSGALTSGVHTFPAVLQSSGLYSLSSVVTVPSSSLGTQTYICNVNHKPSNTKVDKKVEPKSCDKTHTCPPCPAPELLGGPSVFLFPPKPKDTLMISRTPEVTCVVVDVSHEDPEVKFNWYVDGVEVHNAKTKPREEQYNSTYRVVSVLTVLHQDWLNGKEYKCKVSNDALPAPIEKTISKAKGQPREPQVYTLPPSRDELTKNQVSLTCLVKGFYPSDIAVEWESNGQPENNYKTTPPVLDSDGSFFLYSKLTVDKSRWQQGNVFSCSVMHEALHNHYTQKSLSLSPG
light: B3 light
notes: copies: 2 + 2

fold increase in binding vs WT (human C1q (Sigma C0660) [1]): 2 fold | fold increase in binding vs WT (human C1q (Sigma C0660) [4]): 3 fold | binding result [5]: binds
B11: chCB6-huIgG1 L251A (antibody, name in EU numbering)
heavy: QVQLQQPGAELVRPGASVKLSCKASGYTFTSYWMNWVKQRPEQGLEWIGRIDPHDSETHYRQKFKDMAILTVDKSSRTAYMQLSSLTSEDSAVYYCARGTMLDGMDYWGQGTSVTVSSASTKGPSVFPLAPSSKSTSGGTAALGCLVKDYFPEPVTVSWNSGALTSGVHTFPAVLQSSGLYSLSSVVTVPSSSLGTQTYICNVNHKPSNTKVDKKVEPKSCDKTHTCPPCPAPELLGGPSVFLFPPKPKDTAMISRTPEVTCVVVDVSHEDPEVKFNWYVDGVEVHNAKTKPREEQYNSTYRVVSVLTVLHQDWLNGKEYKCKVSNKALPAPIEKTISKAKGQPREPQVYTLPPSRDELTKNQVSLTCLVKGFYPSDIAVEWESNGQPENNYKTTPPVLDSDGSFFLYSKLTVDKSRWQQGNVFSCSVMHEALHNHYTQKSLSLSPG
light: B3 light
notes: copies: 2 + 2

fold increase in binding vs WT [6]: 5 fold
B12: chCB6-huIgG1 I332D/A378Y (antibody, name in EU numbering)
heavy: not shown
light: B3 light
notes: copies: 2 + 2

fold decrease in binding vs WT [3]: 2 fold
B13: chCB6-huIgG1 Y296F (antibody, name in EU numbering)
heavy: not shown
light: B3 light
notes: copies: 2 + 2

fold decrease in binding vs WT [3]: 4 fold
B15: chCB6-huIgG1 L234D (antibody, name in EU numbering)
heavy: not shown
light: B3 light
notes: copies: 2 + 2

fold increase in binding vs WT [6]: 5 fold
B17: chCB6-huIgG1 S239D/A378K (antibody, name in EU numbering)
heavy: not shown
light: B3 light
notes: copies: 2 + 2

fold decrease in binding vs WT [3]: 4 fold
B18: chCB6-huIgG1 E293D (antibody, name in EU numbering)
heavy: not shown
light: B3 light
notes: copies: 2 + 2

fold increase in binding vs WT (human C1q (Sigma C0660) [4]): 4 fold | binding result [5]: binds
B19: chCB6-huIgG1 A378K (antibody, name in EU numbering)
heavy: not shown
light: B3 light
notes: copies: 2 + 2

fold increase in binding vs WT [6]: 5 fold
B22: chCB6-huIgG1 I332D/A378W (antibody, name in EU numbering)
heavy: not shown
light: B3 light
notes: copies: 2 + 2

fold increase in binding vs WT (human C1q (Sigma C0660) [4]): 4 fold | fold decrease in binding vs WT [5]: 5 fold
B23: chCB6-huIgG1 H435S (antibody, name in EU numbering)
heavy: not shown
light: B3 light
notes: copies: 2 + 2

fold decrease in binding vs WT [3]: 9 fold
B24: chCB6-huIgG1 F241H (antibody, name in EU numbering)
heavy: not shown
light: B3 light
notes: copies: 2 + 2

fold increase in binding vs WT [6]: 5 fold
B27: chCB6-huIgG1 I332D/A378F (antibody, name in EU numbering)
heavy: not shown
light: B3 light
notes: copies: 2 + 2

fold increase in binding vs WT (human C1q (Sigma C0660) [4]): 4 fold | fold decrease in binding vs WT [5]: 4 fold
B28: chCB6-huIgG1 H435G (antibody, name in EU numbering)
heavy: not shown
light: B3 light
notes: copies: 2 + 2

fold decrease in binding vs WT (human C1q (Sigma C0660) [1]): 5 fold | fold decrease in binding vs WT (human C1q (Sigma C0660) [4]): 4 fold
B30: chCB6-huIgG1 Y296S (antibody, name in EU numbering)
heavy: not shown
light: B3 light
notes: copies: 2 + 2

fold decrease in binding vs WT (human C1q (Sigma C0660) [1]): 2 fold | binding result [2]: binds | binding result [3]: binds
B32: chCB6-huIgG1 E333D (antibody, name in EU numbering)
heavy: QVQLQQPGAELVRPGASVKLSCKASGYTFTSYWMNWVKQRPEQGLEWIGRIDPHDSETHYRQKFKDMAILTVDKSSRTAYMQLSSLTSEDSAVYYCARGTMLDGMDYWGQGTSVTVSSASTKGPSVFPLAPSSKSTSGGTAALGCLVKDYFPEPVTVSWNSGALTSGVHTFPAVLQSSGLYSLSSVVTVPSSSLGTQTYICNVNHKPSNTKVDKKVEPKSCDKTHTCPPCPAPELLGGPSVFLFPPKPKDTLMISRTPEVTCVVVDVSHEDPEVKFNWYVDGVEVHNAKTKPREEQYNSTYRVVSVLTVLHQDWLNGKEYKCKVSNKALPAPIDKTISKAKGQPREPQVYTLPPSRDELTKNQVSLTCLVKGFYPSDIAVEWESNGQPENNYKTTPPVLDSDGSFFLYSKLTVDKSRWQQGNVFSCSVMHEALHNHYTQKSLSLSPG
light: B3 light
notes: copies: 2 + 2

binding result [3]: no binding
B33: chCB6-huIgG1 D265E (antibody, name in EU numbering)
heavy: not shown
light: B3 light
notes: copies: 2 + 2

fold increase in binding vs WT (human C1q (Sigma C0660) [1]): 4 fold | fold decrease in binding vs WT [2]: 5 fold | binding result [3]: binds
B35: chCB6-huIgG1 K334R (antibody, name in EU numbering)
heavy: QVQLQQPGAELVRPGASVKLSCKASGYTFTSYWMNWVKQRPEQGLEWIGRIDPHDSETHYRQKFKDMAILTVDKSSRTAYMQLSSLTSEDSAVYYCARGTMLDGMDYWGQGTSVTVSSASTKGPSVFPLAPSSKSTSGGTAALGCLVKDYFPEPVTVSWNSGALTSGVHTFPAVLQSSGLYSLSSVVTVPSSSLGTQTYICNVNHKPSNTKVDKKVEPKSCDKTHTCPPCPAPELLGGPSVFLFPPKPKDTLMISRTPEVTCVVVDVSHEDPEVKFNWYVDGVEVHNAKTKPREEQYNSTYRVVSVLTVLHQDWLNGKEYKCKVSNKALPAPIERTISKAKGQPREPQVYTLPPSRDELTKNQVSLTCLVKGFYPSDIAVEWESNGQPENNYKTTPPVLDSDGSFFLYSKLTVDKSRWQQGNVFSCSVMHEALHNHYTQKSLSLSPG
light: B3 light
notes: copies: 2 + 2

fold increase in binding vs WT [6]: 5 fold
B36: chCB6-huIgG1 S239D/A378F (antibody, name in EU numbering)
heavy: not shown
light: B3 light
notes: copies: 2 + 2

binding result (human C1q (Sigma C0660) [1]): binds | binding result [2]: binds | binding result [3]: binds
B37: chCB6-huIgG1 K334Q (antibody, name in EU numbering)
heavy: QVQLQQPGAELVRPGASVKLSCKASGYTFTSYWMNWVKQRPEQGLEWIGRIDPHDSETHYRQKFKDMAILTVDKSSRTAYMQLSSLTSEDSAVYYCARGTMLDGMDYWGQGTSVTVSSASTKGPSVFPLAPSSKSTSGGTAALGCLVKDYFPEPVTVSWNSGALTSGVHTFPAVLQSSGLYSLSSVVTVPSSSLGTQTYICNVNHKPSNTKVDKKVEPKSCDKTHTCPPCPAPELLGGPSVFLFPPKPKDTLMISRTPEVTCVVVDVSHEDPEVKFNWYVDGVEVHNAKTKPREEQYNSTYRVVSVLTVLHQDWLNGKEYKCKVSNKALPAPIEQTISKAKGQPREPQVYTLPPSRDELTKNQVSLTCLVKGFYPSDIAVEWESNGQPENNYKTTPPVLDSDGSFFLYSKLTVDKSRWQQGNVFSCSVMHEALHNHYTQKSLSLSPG
light: B3 light
notes: copies: 2 + 2

binding result (human C1q (Sigma C0660) [1]): binds | binding result [2]: binds | binding result [3]: binds
B38: chCB6-huIgG1 K334N (antibody, name in EU numbering)
heavy: not shown
light: B3 light
notes: copies: 2 + 2

fold decrease in binding vs WT [3]: 6 fold
B39: chCB6-huIgG1 K338M (antibody, name in EU numbering)
heavy: not shown
light: B3 light
notes: copies: 2 + 2

binding result [3]: binds
B40: chCB6-huIgG1 K326N (antibody, name in EU numbering)
heavy: not shown
light: B3 light
notes: copies: 2 + 2

The remaining lines, values behind:

B1: chCB6-huIgG1 K334D (antibody, name in EU numbering)
heavy: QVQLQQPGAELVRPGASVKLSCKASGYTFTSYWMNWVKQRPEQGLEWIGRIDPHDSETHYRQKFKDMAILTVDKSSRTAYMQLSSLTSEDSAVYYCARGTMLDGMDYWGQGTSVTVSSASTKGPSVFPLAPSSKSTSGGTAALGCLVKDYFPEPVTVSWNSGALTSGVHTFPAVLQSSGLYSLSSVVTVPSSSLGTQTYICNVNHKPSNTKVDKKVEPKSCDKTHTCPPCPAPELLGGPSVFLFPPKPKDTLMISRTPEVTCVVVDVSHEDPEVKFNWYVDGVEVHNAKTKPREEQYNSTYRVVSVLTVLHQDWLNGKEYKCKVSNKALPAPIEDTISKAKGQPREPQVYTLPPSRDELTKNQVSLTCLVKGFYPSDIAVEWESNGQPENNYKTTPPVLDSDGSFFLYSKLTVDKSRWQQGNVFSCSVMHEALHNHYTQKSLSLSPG
light: B3 light
notes: copies: 2 + 2
binding result (human C1q (Sigma C0660) [1]): binds | binding result [2]: binds | binding result [3]: binds

B2: chCB6-huIgG1 D376R (antibody, name in EU numbering)
heavy: not shown
light: B3 light
notes: copies: 2 + 2
binding result (human C1q (Sigma C0660) [4]): binds | fold decrease in binding vs WT [5]: 9 fold

B4: chCB6-huIgG1 H435A (antibody, name in EU numbering)
heavy: not shown
light: B3 light
notes: copies: 2 + 2
binding result (human C1q (Sigma C0660) [4]): binds | fold decrease in binding vs WT [5]: 4 fold

B5: chCB6-huIgG1 I332D/H435G (antibody, name in EU numbering)
heavy: not shown
light: B3 light
notes: copies: 2 + 2
binding result [6]: binds

B6: chCB6-huIgG1 K334V (antibody, name in EU numbering)
heavy: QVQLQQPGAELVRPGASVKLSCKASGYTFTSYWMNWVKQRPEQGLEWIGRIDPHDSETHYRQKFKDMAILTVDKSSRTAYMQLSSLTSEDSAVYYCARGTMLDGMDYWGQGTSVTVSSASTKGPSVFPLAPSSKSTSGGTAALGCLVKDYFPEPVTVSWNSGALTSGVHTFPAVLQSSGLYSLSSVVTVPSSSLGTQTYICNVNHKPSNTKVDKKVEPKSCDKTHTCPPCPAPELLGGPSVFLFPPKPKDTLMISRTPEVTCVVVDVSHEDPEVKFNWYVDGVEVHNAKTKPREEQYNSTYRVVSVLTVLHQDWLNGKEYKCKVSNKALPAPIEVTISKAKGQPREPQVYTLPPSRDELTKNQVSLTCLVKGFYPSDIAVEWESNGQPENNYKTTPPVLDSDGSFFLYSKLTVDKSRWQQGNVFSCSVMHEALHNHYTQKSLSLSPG
light: B3 light
notes: copies: 2 + 2
binding result (human C1q (Sigma C0660) [1]): binds | binding result [2]: binds | fold increase in binding vs WT [3]: 3 fold

B7: chCB6-huIgG1 A378Q (antibody, name in EU numbering)
heavy: not shown
light: B3 light
notes: copies: 2 + 2
binding result (human C1q (Sigma C0660) [4]): binds | binding result [5]: binds

B9: chCB6-huIgG1 K326Q (antibody, name in EU numbering)
heavy: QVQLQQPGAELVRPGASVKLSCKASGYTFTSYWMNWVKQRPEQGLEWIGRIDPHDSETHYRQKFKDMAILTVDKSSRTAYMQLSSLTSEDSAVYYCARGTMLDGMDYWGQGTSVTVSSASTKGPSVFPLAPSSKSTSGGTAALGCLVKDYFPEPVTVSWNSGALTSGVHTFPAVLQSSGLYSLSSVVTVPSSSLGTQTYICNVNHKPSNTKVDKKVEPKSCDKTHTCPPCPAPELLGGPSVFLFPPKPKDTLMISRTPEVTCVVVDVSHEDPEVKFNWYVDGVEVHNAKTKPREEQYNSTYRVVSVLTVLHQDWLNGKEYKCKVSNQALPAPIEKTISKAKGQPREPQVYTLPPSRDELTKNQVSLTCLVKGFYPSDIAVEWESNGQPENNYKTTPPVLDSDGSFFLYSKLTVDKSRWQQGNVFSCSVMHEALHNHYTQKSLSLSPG
light: B3 light
notes: copies: 2 + 2
binding result (human C1q (Sigma C0660) [1]): binds | binding result [2]: binds | binding result [3]: binds

B14: chCB6-huIgG1 D376H (antibody, name in EU numbering)
heavy: not shown
light: B3 light
notes: copies: 2 + 2
binding result (human C1q (Sigma C0660) [4]): binds | fold decrease in binding vs WT [5]: 6 fold

B16: chCB6-huIgG1 A378H (antibody, name in EU numbering)
heavy: not shown
light: B3 light
notes: copies: 2 + 2
binding result (human C1q (Sigma C0660) [4]): binds | fold decrease in binding vs WT [5]: 6 fold

B20: chCB6-huIgG1 D270E (antibody, name in EU numbering)
heavy: not shown
light: B3 light
notes: copies: 2 + 2
binding result [3]: binds

B21: chCB6-huIgG1 I332D/H435S (antibody, name in EU numbering)
heavy: not shown
light: B3 light
notes: copies: 2 + 2
binding result [6]: binds

B25: chCB6-huIgG1 L251S (antibody, name in EU numbering)
heavy: not shown
light: B3 light
notes: copies: 2 + 2
binding result (human C1q (Sigma C0660) [4]): binds | binding result [5]: binds

B26: chCB6-huIgG1 K326E (antibody, name in EU numbering)
heavy: not shown
light: B3 light
notes: copies: 2 + 2
binding result [3]: binds

B29: chCB6-huIgG1 K334E (antibody, name in EU numbering)
heavy: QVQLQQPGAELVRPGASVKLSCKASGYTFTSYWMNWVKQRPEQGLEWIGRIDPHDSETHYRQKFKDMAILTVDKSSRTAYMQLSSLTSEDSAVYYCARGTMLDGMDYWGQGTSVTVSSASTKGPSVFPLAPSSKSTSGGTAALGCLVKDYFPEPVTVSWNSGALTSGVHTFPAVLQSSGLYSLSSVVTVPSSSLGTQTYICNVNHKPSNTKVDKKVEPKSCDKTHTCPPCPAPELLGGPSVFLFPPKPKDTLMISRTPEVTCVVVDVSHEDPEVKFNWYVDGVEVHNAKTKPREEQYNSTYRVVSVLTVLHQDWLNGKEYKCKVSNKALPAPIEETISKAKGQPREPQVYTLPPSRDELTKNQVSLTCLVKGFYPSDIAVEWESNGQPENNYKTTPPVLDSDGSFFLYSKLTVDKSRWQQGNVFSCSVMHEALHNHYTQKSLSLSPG
light: B3 light
notes: copies: 2 + 2
binding result (human C1q (Sigma C0660) [1]): binds | binding result [2]: binds | binding result [3]: binds

B31: chCB6-huIgG1 A378R (antibody, name in EU numbering)
heavy: not shown
light: B3 light
notes: copies: 2 + 2
binding result (human C1q (Sigma C0660) [4]): binds | binding result [5]: binds

B34: chCB6-huIgG1 I332D/A378K (antibody, name in EU numbering)
heavy: not shown
light: B3 light
notes: copies: 2 + 2
binding result [6]: binds
